Broadly, the Kd is a measure of binding affinity in units of concentration.

This assay addresses rSK2 small conductance, calcium-activated potassium channel (rat), P70604.

Chain of rSK2 small conductance, calcium-activated potassium channel (rat), P70604 (P70604 whole entry): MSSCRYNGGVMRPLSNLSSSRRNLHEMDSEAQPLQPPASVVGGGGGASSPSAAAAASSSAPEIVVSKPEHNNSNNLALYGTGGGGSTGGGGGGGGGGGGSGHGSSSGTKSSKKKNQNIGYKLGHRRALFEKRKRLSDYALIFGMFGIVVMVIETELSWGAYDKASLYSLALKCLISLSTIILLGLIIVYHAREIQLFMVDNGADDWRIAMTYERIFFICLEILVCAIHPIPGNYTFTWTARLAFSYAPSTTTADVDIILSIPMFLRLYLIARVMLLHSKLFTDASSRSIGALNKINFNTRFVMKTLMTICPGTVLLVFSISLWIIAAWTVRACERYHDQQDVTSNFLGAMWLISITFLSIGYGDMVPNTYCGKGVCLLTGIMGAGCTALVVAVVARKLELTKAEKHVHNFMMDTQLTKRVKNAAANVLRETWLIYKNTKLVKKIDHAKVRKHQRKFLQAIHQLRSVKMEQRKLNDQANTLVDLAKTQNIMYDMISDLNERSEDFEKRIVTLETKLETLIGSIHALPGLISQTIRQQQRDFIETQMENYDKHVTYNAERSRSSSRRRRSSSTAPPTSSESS

In the case of CNCKAPETALCARRCQQH (modifications not checked) [apamin, P01500 28-45], the Kd came out at 63 µM.
